For the assay, the target named is Nck adaptor protein (Nck1), recombinant (UniProt P16333 1-377). Kind of assay: MST.

Non-standard residues stand in square brackets, D forms with d. No end group written: not given here. pY = N[C@@H](Cc1ccc(OP(=O)(O)O)cc1)C(=O)O

The term Kd denotes a measure of binding affinity in units of concentration.

B1: peptide Y474 (pY-containing Tir peptide) (peptide)
chain: EEHI[pY]DEVAAD
Consider B1, for which the Kd was 76.4 nM.
